The target in the assay is HA/Flag-tagged Met66 prodomain (human). The assay can be described thus: co-IP.
HA/Flag-tagged Met66 prodomain (human), sequence (P23560 19-247): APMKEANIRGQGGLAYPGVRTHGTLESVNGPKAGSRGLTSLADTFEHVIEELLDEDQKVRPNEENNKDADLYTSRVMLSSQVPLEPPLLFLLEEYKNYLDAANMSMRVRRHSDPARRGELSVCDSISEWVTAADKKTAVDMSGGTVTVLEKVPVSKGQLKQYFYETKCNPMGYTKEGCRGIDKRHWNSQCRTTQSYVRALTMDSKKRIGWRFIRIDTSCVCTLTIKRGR

“Myc-tagged SorCS2 (from UniProt Q96PQ0 51-1159) (receptor)”: the percent more co-immunoprecipitated than with the Val66 prodomain came to 23%.

The record behind these values is article PMC3820160.
